Test results: patent publication US20250230247A1

Tests used:
[1] = target: human Dectin-1 expressed on cells (isoform not given) (human) (UniProt Q9BXN2); experiment: flow cytometry on human monocytes (summary table)
[2] = target: human Dectin-1 expressed on cells (isoform not given) (human) (UniProt Q9BXN2); experiment: flow cytometry on human monocytes
[3] = target: T1, human Dectin-1 isoform A (human) (UniProt Q9BXN2); experiment: flow cytometry on HEK293F hDectin-1a FL cells
T1 sequence: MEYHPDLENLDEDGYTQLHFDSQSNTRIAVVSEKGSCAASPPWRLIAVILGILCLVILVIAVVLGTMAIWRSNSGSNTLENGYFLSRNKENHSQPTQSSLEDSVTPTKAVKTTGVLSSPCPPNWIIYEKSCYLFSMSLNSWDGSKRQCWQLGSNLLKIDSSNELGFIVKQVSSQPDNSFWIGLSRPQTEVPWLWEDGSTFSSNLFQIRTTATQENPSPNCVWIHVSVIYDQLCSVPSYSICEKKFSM

[4] = target: T1, human Dectin-1 isoform A (human); experiment: flow cytometry on HEK293F hDectin-1a FL cells (summary table)
[5] = target: human Dectin-1 expressed on cells (isoform not given) (human) (UniProt Q9BXN2)
[6] = target: T1, human Dectin-1 isoform A (human); experiment: flow cytometry on HEK-Blue hDectin-1a cells (summary table)
[7] = target: T1, human Dectin-1 isoform A (human); experiment: flow cytometry on HEK-Blue hDectin-1a cells

EC50 [1]: 0.6 nM | EC50 [2]: 0.6 nM | EC50 [3]: 1.4 nM | EC50 [4]: 1.4 nM | IFNg secretion in PBMC, immobilized antibody (fold change to isotype) [5]: 1.6 | IL6 secretion in PBMC, immobilized antibody (fold change to isotype) [5]: 2.6 | TNFa secretion in PBMC, immobilized antibody (fold change to isotype) [5]: 3 | EC50 [6]: 1.2 nM | EC50 [7]: 1.2 nM
B1: commercial anti-Dectin-1 antibody 15E2 (antibody, from a related filing, V domains shown)
VH: QWQLQQSGAELARPGASWKMSCKASGYTFTTYTMHWWKQRPGQGLEWIGYINPSSGYTNYNQKFKDKATLTADKSSSTASMQLSSLTSEDSAWYYCARERAVLVPYAMDYWGQGTSVTVSS
VL: QIVLTQSPAVMSASPGEKWTITCTASSSLSYMHWFQQKPGTSPKLWLYSTSILASGVPTRFSGSGSGTSYSLTISRMEAEDAATYYCQQRSSSPFTFGSGTKLEIK
